Experimental data: paper PMC12654650, “Characterization of a β-Galactosidase from Kosakonia oryzendophytica and Its Heterologous Expression in Bacillus subtilis for Galactooligosaccharides Production” (Molecules, 2025)

Substrate: O=[N+]([O-])c1ccccc1O[C@@H]1O[C@H](CO)[C@H](O)[C@H](O)[C@H]1O
Assay: purified protein
Format: biochemical, Kosakonia oryzendophytica
Conditions: pH 7.0, 100 mM HEPES, 50 °C, 5 min, ONPG 0.3-50 mM, fit called substrate inhibition curve (Figure S4)

B1: Koor β-gal (Kosakonia oryzendophytica) (protein)
chain: MSASALRTLISRRDWENPVITHWHRLPAHAPMRSWRDEQAARDNAPSSAHRLLNGEWYFRFFPAPEAVPERWITEEYDDAVAMPVPSNWQMQGFDTPIYTNVTYPIPVNPPFVPQQNPTGCYSLTFEMTAQALAQGQTRIVFDGVNSAFYLWCNGQWIGYSQDSRLPAEFDLSDVLHVGQNRLAVMVLRWCDGSYLEDQDMWRMSGIFRDVSLQHKPATHIADFHHTTELNAEFTHGQVKVDLRLAGEYSACQVAVALWHGEEKIAQAQQAPGSAIVDERGAWAERLSVSLPVSDPLLWSAETPHLYRLTLTLLDGLGNVLEVEACNVGFRKVEISNGLLKLNGKPLLIRGVNRHEHHPENGQAIDEATMRRDIELMKQHNFNAVRCSHYPNHPLWYSLCDEYGLYVVDEANIETHGMTPMSRLSDDPQWLPAMSERVTRMVLRDRNHPSIIIWSLGNESGHGASHDALYRWLKTTDPTRPVQYEGGGANTAATDIICPMYARVDEDQPFPAVPKWSIKKWIGLPDETRPLILCEYAHAMGNSFGGFAKYWQAFRETPRLQGGFVWDWVDQALTKTDTNGQSFWAYGGDFGDTPNDRQFCMNGLVFPDRTPHPALYEAQRAQQFFQFRLLNTTPLVIEVESEYLFRTTDNEYLRWAVVRDGLVLAQGEITLAIAPQGKQQIALTIPELESAPGEVWLNVDVYQKAATPWSDAEHHCAWDQWRLPSPLFIAPRKTVSSRPMLVVSEEEYVIHHRNQRWQFCRRSGDLIQWWRDEQPTLLTPLRDSFARAPLDNDIGISEVTRIDPNAWVERWKAAGMYDLRAELLACEVEEHAADIVVTTTHCWSGAGKTGFVSHKRWRIDGEGVLHGEVDVQVATDIPPPARIGLVCQLSEVQASVSWLGLGPHENYPDRKLAARQGRWTLPLAALHTPYIFPGENGLRCETRELHYGAHHLNGDFHFSLGRYSDKQLRETTHHHLLREEAGCWLHLDAFHMGVGGDDSWSPSVSPEFILRSERVRYAFCWRQD
notes: C-terminal 6xHis tag, pET-28a(+) NcoI/XhoI, E. coli BL21(DE3), Ni-NTA; synthetic gene
Km: 6.0 ± 0.3 mM
kcat: 732.7 ± 43.5 s⁻¹
